From FireProtDB (doi:10.1110/ps.38602)

Settings: pH 5.5, CD, NaOAc 20 mM, KCl 50 mM, reversible: yes, whole UniProt chain shown; for denaturant m value / unfolding free energy: 25 °C; for Tm / heat capacity change of unfolding: Thermal
[1] = Thermus thermophilus (strain ATCC 27634 / DSM 579 / HB8), GdnHCl
[2] = Thermus thermophilus (strain ATCC 27634 / DSM 579 / HB8)
[3] = Escherichia coli (strain K12), GdnHCl
[4] = Escherichia coli (strain K12), Urea

B1: Ribonuclease H wild type, P29253 (protein)
chain: MNPSPRKRVALFTDGACLGNPGPGGWAALLRFHAHEKLLSGGEACTTNNRMELKAAIEGLKALKEPCEVDLYTDSHYLKKAFTEGWLEGWRKRGWRTAEGKPVKNRDLWEALLLAMAPHRVRFHFVKGHTGHPENERVDREARRQAQSQAKTPCPPRAPTLFHEEA
B1 gave a denaturant m value [1] of 4.4 kcal/mol/M, an unfolding free energy [1] of 12.2 kcal/mol and a Tm [2] of 86 °C. The “heat capacity change of unfolding” value [2] was 1.8 kcal/mol/K.

B2: Ribonuclease HI wild type, P0A7Y4 (protein)
chain: MLKQVEIFTDGSCLGNPGPGGYGAILRYRGREKTFSAGYTRTTNNRMELMAAIVALEALKEHCEVILSTDSQYVRQGITQWIHNWKKRGWKTADKKPVKNVDLWQRLDAALGQHQIKWEWVKGHAGHPENERCDELARAAAMNPTLEDTGYQVEV
For B2, the denaturant m value [3] was 4.9 kcal/mol/M, the unfolding free energy [3] was 7.6 kcal/mol and the denaturant m value [4] was 2.1 kcal/mol/M. The unfolding free energy [4] was 9.7 kcal/mol, the Tm (Escherichia coli (strain K12)) was 66 °C and the “heat capacity change of unfolding” value (Escherichia coli (strain K12)) was 2.7 kcal/mol/K.
